In patent publication US6602687B1, “DNA encoding human ciliary neurotrophic factor and method for producing the protein encoded thereby” (Regeneron Pharmaceuticals, Inc., priority 1989, dated 2003) one finds biological activity data, which are given here for four molecules.

B1: pRPN112: hCNTF interrupted after the 145th codon plus one leucine; lacks 55 carboxyl-terminal residues (protein, UniProt P26441 1-145, looked up, fragment)
chain: MAFTEHSPLTPHRRDLCSRSIWLARKIRSDLTALTESYVKHQGLNKNINLDSADGMPVASTDQWSELTEAERLQENLQAYRTFHVLLARLLEDQQVHFTPTEGDFHQAIHTLLLQVAAFAYQIEELMILLEYKIPRNEADGMPIN
modifications: plus one C-terminal leucine
notes: hCNTF interrupted after the 145th codon plus one leucine; lacks 55 carboxyl-terminal residues
B2: pRPN59: hCNTF interrupted after the 185th codon, followed by 10 additional unrelated amino acids (protein, UniProt P26441 1-185, looked up, fragment)
chain: MAFTEHSPLTPHRRDLCSRSIWLARKIRSDLTALTESYVKHQGLNKNINLDSADGMPVASTDQWSELTEAERLQENLQAYRTFHVLLARLLEDQQVHFTPTEGDFHQAIHTLLLQVAAFAYQIEELMILLEYKIPRNEADGMPINVGDGGLFEKKLWGLKVLQELSQWTVRSIHDLRFISSHQTG
modifications: plus 10 unrelated C-terminal residues
B3: pRPN65: rCNTF terminated immediately after the 165th codon (protein, UniProt P20294 1-165, looked up, fragment)
chain: MAFAEQTPLTLHRRDLCSRSIWLARKIRSDLTALMESYVKHQGLNKNINLDSVDGVPVASTDRWSEMTEAERLQENLQAYRTFQGMLTKLLEDQRVHFTPTEGDFHQAIHTLMLQVSAFAYQLEELMVLLEQKIPENEADGMPATVGDGGLFEKKLWGLKVLQEL
B4: pRPN109: hCNTF with serine in place of cysteine at amino acid 17, encoded in plasmid pRPN109 (protein, UniProt P26441 1-200, looked up, variant C17S)
Ciliary neurotrophic factor: MAFTEHSPLTPHRRDLSSRSIWLARKIRSDLTALTESYVKHQGLNKNINLDSADGMPVASTDQWSELTEAERLQENLQAYRTFHVLLARLLEDQQVHFTPTEGDFHQAIHTLLLQVAAFAYQIEELMILLEYKIPRNEADGMPINVGDGGLFEKKLWGLKVLQELSQWTVRSIHDLRFISSHQTGIPARGSHYIANNKKM

For this assay, the system named is dorsal root ganglia and/or dissociated ciliary neurons. As to the kind of experiment: Biological activity of modified and truncated CNTF proteins (rapid bacterial extracts). The format is cell-based, chick. Conditions: soluble protein extracted from induced bacteria hosting each plasmid; compared with full length parental protein. On the procedure: Samples for gel electrophoresis were prepared by resuspending cell pellets from 0.5 ml culture OD590=2 in 0.16 ml lysis buffer (100 mM TrisHCl, 10% glycerol, 4% sodium dodecyl sulfate, 1 mM dithiothreitol, 0.5 mg/ml bromophenol blue, pH 6.8) and boiling for 5 minutes.
Biological activity of recombinant CNTF was assayed on explants of chick embryo dorsal root ganglia (DRG) and dissociated cultures of ciliary ganglion (CG) neurons as described in Lindsay and Rohrer (1985, Devel. Biol 112:30-48). Briefly, DRG were dissected from chick embryos of 10 days incubation (E10) and 5-6 ganglia were explanted in 1 ml of a collagen gel matrix in 35 mm tissue culture dishes. After the gel had set, 1 ml of tissue culture growth medium F14 (Imperial Labs., U.K.) supplemented with 5% heat-inactivated horse serum (GIBCO) was added before adding human CNTF (1-20 l) to a final concentration of 100 pg to 100 ng/ml. CG were dissected from E8 chick embryos and incubated for 30 min in 0.25% trypsin (Worthington) in calcium- and magnesium-free phosphate buffered saline. The ganglia were then washed three times in F14 medium containing 5% horse serum before being dissociated to a single cell suspension by trituration through the bore of a Pasteur pipette. Enrichment for CG neurons was achieved by plating the cell suspension for 3.5 hr in a 60 mm dish, during which non-neuronal cells (fibroblasts and Schwann cells) attached firmly to the plastic while phase-bright neurons remained in suspension. The purified neurons were plated on polyornithine-laminin-coated 35 mm culture dishes at 8,000-10,000 neurons/dish. In explant cultures CNTF activity was determined by assessing the extent of fiber outgrowth in treated cultures compared to controls. Fiber outgrowth was scored on a scale of 0 to 5+, by comparing cultures to photographs of a dose-response of explanted DRG and NGF. In dissociated CG neuron cultures, CNTF activity was determined by counting at 48 hr the percentage of process-bearing neurons in control and CNTF-treated cultures. In all cases results were derived from triplicate cultures.
Biological activity was assayed on dorsal root ganglia and/or dissociated ciliary neurons was determined as described in section 12.1.6. Soluble protein was extracted from induced bacteria hosting each plasmid by the “rapid” protein extraction method described in section 12.1.3.
Take B1: the biological activity entry was “inactive”.

B2: the biological activity result is “as active as the full length protein”.

Turning to B3, the biological activity result was “inactivated”.

For B4, the biological activity result is “as active as the full length protein”.
